Literature values in PMC9917443.
Read-outs that look alike come from different tables or passages of the source.

Columns and labels:
GB1a SD1 [1] = target: GB1a SD1 (UniProt Q9UBS5)
GB1a SD1 [2] = target: GB1a SD1 (UniProt Q9UBS5); remark: listed apart in the source
GB1a SD1 [3] = target: GB1a SD1 (UniProt Q9UBS5); remark: listed apart in the source

Chain of GB1a SD1 (Q9UBS5 30-96): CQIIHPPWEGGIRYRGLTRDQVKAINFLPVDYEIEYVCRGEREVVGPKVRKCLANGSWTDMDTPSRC
Chain of APP (P05067 18-770): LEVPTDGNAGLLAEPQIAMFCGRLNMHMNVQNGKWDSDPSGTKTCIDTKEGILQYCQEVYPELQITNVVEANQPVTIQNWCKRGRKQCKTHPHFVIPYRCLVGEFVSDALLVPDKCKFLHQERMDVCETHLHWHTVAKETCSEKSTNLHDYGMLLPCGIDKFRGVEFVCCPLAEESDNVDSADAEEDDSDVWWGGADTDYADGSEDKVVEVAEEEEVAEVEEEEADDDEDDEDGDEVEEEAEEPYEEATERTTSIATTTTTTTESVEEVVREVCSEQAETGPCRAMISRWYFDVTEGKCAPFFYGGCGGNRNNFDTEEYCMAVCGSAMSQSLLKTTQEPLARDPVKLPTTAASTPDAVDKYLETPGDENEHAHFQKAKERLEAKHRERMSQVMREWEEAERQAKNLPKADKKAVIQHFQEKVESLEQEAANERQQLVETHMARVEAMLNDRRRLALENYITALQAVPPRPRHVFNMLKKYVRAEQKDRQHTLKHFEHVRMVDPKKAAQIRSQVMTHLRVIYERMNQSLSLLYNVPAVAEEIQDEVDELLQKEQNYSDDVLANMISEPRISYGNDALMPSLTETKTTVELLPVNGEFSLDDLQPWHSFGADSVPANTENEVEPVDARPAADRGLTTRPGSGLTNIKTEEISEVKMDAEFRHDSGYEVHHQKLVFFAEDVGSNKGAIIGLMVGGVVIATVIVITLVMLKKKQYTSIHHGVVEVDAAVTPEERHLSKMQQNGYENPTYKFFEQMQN
Chain of sAPP (P05067 18-687): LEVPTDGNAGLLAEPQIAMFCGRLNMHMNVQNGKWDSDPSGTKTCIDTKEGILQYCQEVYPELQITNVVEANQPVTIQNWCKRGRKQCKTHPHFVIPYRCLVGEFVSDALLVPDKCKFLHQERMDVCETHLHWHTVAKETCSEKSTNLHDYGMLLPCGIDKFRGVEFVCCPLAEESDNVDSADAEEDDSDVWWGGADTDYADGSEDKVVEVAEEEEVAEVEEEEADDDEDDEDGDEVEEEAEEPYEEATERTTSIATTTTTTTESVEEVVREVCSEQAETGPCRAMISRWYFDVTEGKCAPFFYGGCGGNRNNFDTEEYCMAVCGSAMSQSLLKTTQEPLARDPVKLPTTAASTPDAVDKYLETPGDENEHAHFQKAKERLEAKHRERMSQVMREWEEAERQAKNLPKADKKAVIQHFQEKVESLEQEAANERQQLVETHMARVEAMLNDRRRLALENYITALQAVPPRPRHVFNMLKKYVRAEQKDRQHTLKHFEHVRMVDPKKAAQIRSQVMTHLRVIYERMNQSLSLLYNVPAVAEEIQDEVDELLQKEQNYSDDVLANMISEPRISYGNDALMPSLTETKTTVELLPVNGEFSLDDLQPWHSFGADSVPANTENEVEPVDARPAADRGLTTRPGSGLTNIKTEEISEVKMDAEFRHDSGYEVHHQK

Question: Which Kd (GB1a SD1 [1]) does the source give for “APP17 APP17 peptide (from UniProt P05067)” here?
Answer: 810 nM

Question: For APP (from UniProt P05067), which Kd (GB1a SD1 [2]) is on record?
Answer: 183 nM

Question: With sAPP (from UniProt P05067) as the substance, how does the Kd (GB1a SD1 [3]) read?
Answer: 431 nM
